Measurements published in patent US20240191188A1 (JUNO THERAPEUTICS, published 2024).

Target: T1, soluble oligomeric streptavidin mutein (oligomer of Strep-tactin, n≥3, crosslinked with sulfo-SMCC and … (Streptomyces avidinii, UniProt P22629 38-163, chemically crosslinked with sulfo-SMCC and iminothiolan))
T1 construct: Oligomers of homo-tetramers separated from monomeric and dimeric mutein by size exclusion chromatography; no single molecular weight; also called soluble oligomeric Strep-tactin; oligomeric mutein streptavidin
Assay: mixing of peptide-tagged Fab with soluble oligomeric streptavidin mutein at room temperature

B1: αCD28 Fab fragment derived from the monoclonal anti-human CD28 antibody CD28.3, heavy chain carboxy-terminally fused to the Twin-Strep-tag (monomeric) (Fab)
heavy (part 1 of 2): LQQSGAELVKPGASVRLSCKASGYTFTEYIIHWIKLRSGQGLEWIGWFYPGSNDIQYNAKFKGKATLTADKSSSTVYMELTGLTSEDSAVYFCARRDDFSGYDALPYWGQGTMVTV
heavy (part 2 of 2): not shown
light: DIQMTQSPASLSVSVGETVTITCRTNENIYSNLAWYQQKQGKSPQLLIYAATHLVEGVPSRFSGSGSGTQYSLKITSLQSEDFGNYYCQHFWGTPCTFGGGTKLEIKR
notes: Recombinantly produced in E. coli; also called anti-CD28 Fab fragment; αCD28 Fab fragment of the antibody 28.3; not shown: human kappa light chain constant domain
B1: binds.
